Results: patent publication US20140161799A1 (ARCH ONCOLOGY, published 2014)
Changes are numbered by the printed parent chain.

T1: mouse CD47 (mouse, UniProt Q61735 19-303)
T1 construct: whole, on cells; also called CD47 on mouse red blood cells
T1 sequence (looked up): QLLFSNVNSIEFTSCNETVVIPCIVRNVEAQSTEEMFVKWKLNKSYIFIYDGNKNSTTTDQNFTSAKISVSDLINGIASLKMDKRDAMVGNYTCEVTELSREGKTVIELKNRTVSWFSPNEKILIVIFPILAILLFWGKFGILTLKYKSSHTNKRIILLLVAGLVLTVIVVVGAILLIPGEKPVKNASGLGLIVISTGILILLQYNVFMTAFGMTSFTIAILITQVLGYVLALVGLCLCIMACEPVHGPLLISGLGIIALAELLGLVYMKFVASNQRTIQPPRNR

T2: rat CD47 (rat, UniProt P97829 19-303)
T2 construct: whole, on cells; also called CD47 on rat red blood cells
T2 sequence (looked up): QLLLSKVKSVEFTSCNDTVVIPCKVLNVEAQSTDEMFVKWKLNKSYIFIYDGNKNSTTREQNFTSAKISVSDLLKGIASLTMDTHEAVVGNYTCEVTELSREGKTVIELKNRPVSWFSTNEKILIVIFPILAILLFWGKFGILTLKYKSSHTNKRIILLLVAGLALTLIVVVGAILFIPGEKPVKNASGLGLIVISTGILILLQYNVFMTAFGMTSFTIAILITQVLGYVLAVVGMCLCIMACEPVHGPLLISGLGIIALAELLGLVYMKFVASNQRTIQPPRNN

T3: pig CD47 (pig, UniProt Q9GKE8 19-303)
T3 construct: whole, on cells; also called CD47 on pig red blood cells
T3 sequence (looked up): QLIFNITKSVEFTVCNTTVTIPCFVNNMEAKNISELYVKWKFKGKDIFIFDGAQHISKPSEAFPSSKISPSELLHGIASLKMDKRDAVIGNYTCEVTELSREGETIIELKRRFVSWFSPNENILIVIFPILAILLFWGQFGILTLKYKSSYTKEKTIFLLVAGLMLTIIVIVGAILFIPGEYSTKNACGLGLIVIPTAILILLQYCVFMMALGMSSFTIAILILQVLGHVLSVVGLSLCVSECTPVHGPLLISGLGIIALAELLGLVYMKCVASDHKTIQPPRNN

B1: pVxK7b-037-hum11-LC/pVxK7b-037-hum11-HC (antibody, human IgG1, V domains shown)
VH: QVQLQESGPGLVKPGATVKISCKVSGYTFTNYYVFWVRQARGQRLEWIGDINPVNGDTNFNEKFKNRVTITADKSTSTAYMELSSLRSEDTAVYYCARGGYTMDYWGQG
VL: EIVLTQSPATLSVSPGERATLSCRSSQSLVHSNGNTYLHWYQQKPGQAPRLLIYKVSYRFSGVPSRFSGSGSGTDFTFTISSLEAEDAATYYCSQNTHVPRTFGQG
notes: Full-length human IgG1/kappa in CHO supernatant; Variable entries end within framework 4 (...FGQG / ...WGQG); also called Clone 11
B2: pVxK7b-037-hum18-LC/pVxK7b-037-hum18-HC (antibody, human IgG1, V domains shown)
VH: EVQLVQSGAEVKKPGESLRISCKGSGYTFTNYYVFWIRQSPSRGLEWLGDINPVNGDTNFNEKFKNRVTITADKSTSTAYMELSSLRSEDTAVYYCARGGYTMDYWGQG
VL: B1 VL
notes: Full-length human IgG1/kappa in CHO supernatant; Variable entries end within framework 4 (...FGQG / ...WGQG); also called Clone 18
B3: pVxK7b-037-hum10-LC/pVxK7b-037-hum10-HC (antibody, human IgG1, V domains shown)
VH: QVQLQESGPGLVKPSQTLSLTCTVSGYTFTNYYVFWVRQARGQRLEWIGDINPVNGDTNFNEKFKNRLTISKDTSKNQVVLTMTNMDPVDTATYYCARGGYTMDYWGQG
VL: DIVMTQTPLSLPVTPGEPASISCRSSQSLVHSNGNTYLHWYLQKPGQSPQLLIYKVSYRFSGVPDRFSGSGSGTDFTLKISRVEAEDVGVYYCSQNTHVPRTFGQG
notes: Full-length human IgG1/kappa in CHO supernatant; Variable entries end within framework 4 (...FGQG / ...WGQG); also called Clone 10
B4: pVxK7b-037-hum20-LC/pVxK7b-037-hum20-HC (antibody, human IgG1, V domains shown)
VH: QITLKESGPTLVKPTQTLTLTCTFSGYTFTNYYVFWVRQAPGQGLEWMGDINPVNGDTNFNEKFKNRVTITADKSTSTAYMELSSLRSEDTAVYYCARGGYTMDYWGQG
VL: B3 VL
notes: Full-length human IgG1/kappa in CHO supernatant; Variable entries end within framework 4 (...FGQG / ...WGQG); also called Clone 20
B5: pVxK7b-037-hum01-LC/pVxK7b-037-hum01-HC (antibody, human IgG1, V domains shown)
VH: QVQLQESGPGLVKPSQTLSLTCTVSGYTFTNYYVFWVRQARGQRLEWIGDINPVNGDTNFNEKFKNRVTISADKSISTAYLQWSSLKASDTAMYYCARGGYTMDYWGQG
VL: B3 VL with L42Q, Q47K, S48A, Q50K
notes: Full-length human IgG1/kappa in CHO supernatant; Variable entries end within framework 4 (...FGQG / ...WGQG); also called Clone 1
B6: pVxK7b-037-hum22-LC/pVxK7b-037-hum22-HC (antibody, human IgG1, V domains shown)
VH: B3 VH
VL: B1 VL
notes: Full-length human IgG1/kappa in CHO supernatant; Variable entries end within framework 4 (...FGQG / ...WGQG); also called Clone 22
B7: pVxK7b-037-hum14-LC/pVxK7b-037-hum14-HC (antibody, human IgG1, V domains shown)
VH: B5 VH
VL: B3 VL with I2V, T7S, P15L, E17Q, L42Q, Q47K, S48A, Q50K
notes: Full-length human IgG1/kappa in CHO supernatant; Variable entries end within framework 4 (...FGQG / ...WGQG); also called Clone 14
B8: pVxK7b-037-hum16-LC/pVxK7b-037-hum16-HC (antibody, human IgG1, V domains shown)
VH: B5 VH
VL: AIQLTQSPSSLSASVGDRVTITCRSSQSLVHSNGNTYLHWYQQKPGQAPRLLIYKVSYRFSGVPDRFSGSGSGTDFTLKISRVEAEDVGVYYCSQNTHVPRTFGQG
notes: Full-length human IgG1/kappa in CHO supernatant; Variable entries end within framework 4 (...FGQG / ...WGQG); also called Clone 16
B9: pVxK7b-037-hum17-LC/pVxK7b-037-hum17-HC (antibody, human IgG1, V domains shown)
VH: B2 VH with E16A, S17T, L18V, R19K, G24V, S40P, S42G, R43K, L48I
VL: B8 VL
notes: Full-length human IgG1/kappa in CHO supernatant; Variable entries end within framework 4 (...FGQG / ...WGQG); also called Clone 17

Target: T4, human CD47 (human, UniProt Q08722 19-323)
T4 construct: whole, on cells; also called CD47 on human red blood cells
Assay: flow cytometry on RBCs, antibody 10 ng/ml
Protocol: (§1) Cross species reactivity of humanized antibodies of the present invention is determined using freshly isolated red blood cells (RBCs), which display CD47 on their surface, from human, mouse, rat, and pig according to the methods disclosed in Kamel et al. (2010) Blood. Transfus. 8(4):260-266.
(§2) RBCs are incubated for 60 minutes on ice with tissue culture supernatants containing the secreted humanized antibodies at a concentration of 10 ng/ml in a solution of phosphate buffered saline, pH 7.2, 2.5 mM EDTA (PBS+E). Cells are then washed with cold PBS+E, and incubated for an additional hour on ice with FITC labeled donkey anti-human antibody (Jackson Immuno Research Labs, West Grove, Pa.; Catalogue #709-096-149) in PBS+E. Cells are then washed with PBS+E, and antibody binding is analyzed using a BD FACSAria Cell Sorter (Becton Dickinson) or a C6 Accuri Flow Cytometer (Becton Dickinson). Antibody binding is quantitated by comparison of mean fluorescence values relative to that of chimeric antibody >VxP037-01LC (SEQ ID NO:7))/>VxP037-01HC (SEQ ID NO:57). The mean fluorescence value for each antibody is divided by the mean fluorescence value for the chimeric antibody.

T4 sequence (Q08722 19-323): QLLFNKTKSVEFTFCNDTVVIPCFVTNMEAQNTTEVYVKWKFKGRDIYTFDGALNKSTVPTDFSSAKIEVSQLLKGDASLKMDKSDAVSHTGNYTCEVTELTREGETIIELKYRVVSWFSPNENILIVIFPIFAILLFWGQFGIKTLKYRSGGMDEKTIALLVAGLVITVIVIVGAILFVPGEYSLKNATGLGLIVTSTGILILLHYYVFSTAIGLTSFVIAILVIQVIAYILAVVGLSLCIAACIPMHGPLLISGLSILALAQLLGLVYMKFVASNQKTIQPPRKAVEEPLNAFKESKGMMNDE

| Binder | mean fluorescence relative to chimeric antibody |
| --- | --- |
| B1 | 0.8 fold of chimera |
| B2 | 1 fold of chimera |
| B3 | 1.1 fold of chimera |
| B4 | 1.3 fold of chimera |
| B5 | 1.1 fold of chimera |
| B6 | 1.1 fold of chimera |
| B7 | 1.1 fold of chimera |
| B8 | 0.9 fold of chimera |
| B9 | 0.8 fold of chimera |

Target: T1, mouse CD47
Assay: flow cytometry on RBCs, antibody 10 ng/ml
Protocol: as §1, §2

| Binder | mean fluorescence relative to chimeric antibody |
| --- | --- |
| B1 | 0.7 fold of chimera |
| B2 | 1.3 fold of chimera |
| B3 | 1.2 fold of chimera |
| B4 | 1.5 fold of chimera |
| B5 | 1.7 fold of chimera |
| B6 | 1.2 fold of chimera |
| B7 | 1.5 fold of chimera |
| B8 | 1 fold of chimera |
| B9 | 0.9 fold of chimera |

Target: T2, rat CD47
Assay: flow cytometry on RBCs, antibody 10 ng/ml
Protocol: as §1, §2

| Binder | mean fluorescence relative to chimeric antibody |
| --- | --- |
| B1 | 1.2 fold of chimera |
| B2 | 2.2 fold of chimera |
| B3 | 2.9 fold of chimera |
| B4 | 1.9 fold of chimera |
| B5 | 2.7 fold of chimera |
| B6 | 2.8 fold of chimera |
| B7 | 3.2 fold of chimera |
| B8 | 2.1 fold of chimera |
| B9 | 2.1 fold of chimera |

Target: T3, pig CD47
Assay: flow cytometry on RBCs, antibody 10 ng/ml
Protocol: as §1, §2

| Binder | mean fluorescence relative to chimeric antibody |
| --- | --- |
| B1 | 1.2 fold of chimera |
| B2 | 1.2 fold of chimera |
| B3 | 1.5 fold of chimera |
| B4 | 1.7 fold of chimera |
| B5 | 1.3 fold of chimera |
| B6 | 1.4 fold of chimera |
| B7 | 1.4 fold of chimera |
| B8 | 1.1 fold of chimera |
| B9 | 1.3 fold of chimera |
